This note sets out measurements from article PMC12407084.

For this assay, the target named is Taxol-stabilized microtubules polymerized from bovine brain tubulin, Q6B856. The assay can be described thus: fluorescence microscopy of microtubule decoration by GFP-tagged protein. To be noted: chain shown with the change; 100 nM GFP-tagged Ndc80c Bonsai protein; rhodamine-labeled taxol-stabilized microtubules; parent: est. 12000; read off a plot.
Taxol-stabilized microtubules polymerized from bovine brain tubulin, Q6B856, sequence (chain, as listed by the source, chain 1 of 2): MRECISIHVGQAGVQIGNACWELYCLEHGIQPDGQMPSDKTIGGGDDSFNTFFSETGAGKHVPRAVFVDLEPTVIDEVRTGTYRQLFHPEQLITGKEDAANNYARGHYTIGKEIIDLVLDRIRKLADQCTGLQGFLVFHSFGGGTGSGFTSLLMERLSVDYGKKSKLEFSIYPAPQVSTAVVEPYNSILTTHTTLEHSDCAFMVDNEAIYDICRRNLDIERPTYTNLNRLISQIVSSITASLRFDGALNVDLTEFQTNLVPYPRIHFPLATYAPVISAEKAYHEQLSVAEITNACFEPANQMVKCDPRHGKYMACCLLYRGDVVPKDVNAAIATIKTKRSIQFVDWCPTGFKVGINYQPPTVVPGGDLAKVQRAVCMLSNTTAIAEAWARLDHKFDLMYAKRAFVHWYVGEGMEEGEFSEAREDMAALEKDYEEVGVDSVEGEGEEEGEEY
Taxol-stabilized microtubules polymerized from bovine brain tubulin, Q6B856, sequence (Q6B856 whole entry, chain 2 of 2): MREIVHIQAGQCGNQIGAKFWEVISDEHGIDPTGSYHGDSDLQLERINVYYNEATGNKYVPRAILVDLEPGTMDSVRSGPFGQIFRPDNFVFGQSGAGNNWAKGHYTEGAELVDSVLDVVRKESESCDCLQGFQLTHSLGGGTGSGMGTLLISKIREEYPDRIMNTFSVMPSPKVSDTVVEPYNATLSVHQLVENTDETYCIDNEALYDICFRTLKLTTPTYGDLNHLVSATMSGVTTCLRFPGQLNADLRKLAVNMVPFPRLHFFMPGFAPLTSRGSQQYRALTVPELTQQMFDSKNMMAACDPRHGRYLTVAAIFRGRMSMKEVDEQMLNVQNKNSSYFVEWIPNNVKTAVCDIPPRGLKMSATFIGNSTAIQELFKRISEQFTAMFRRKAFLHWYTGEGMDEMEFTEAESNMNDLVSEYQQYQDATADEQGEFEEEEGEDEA

B1: Human Ndc80c Bonsai Ndc80-GFP (WT) Nuf2:K33D; Nuf2:K41D; Nuf2:K115D (protein)
chain 1: MKRSSVSSGGAGRLSMQELRSQDVNKQGLYTPQTKEKPTFGKLSINKPTSERKVSLFGKRTSGHGSRNSQLGIFSSSEKIKDPRPLNDKAFIQQCIRQLCEFLTENGYAHNVSMKSLQAPSVKDFLKIFTFLYGFLCPSYELPDTKFEEEVPRIFKDLGYPFALSKSSMYTVGAPHTWPHIVAALVWLIDCIKIHTAMKESSPLFDDGQPWGEETEDGIMHNKLFLDYTIKCYESFMSGADSFDEMNAELQSKLKDLFNVDAFKLESLEAKNRALNEQIARLEQERSTANKANAERLKRLQKSADLYKDRLGLEIRKIYGEKLQFIFTNIDPKNPESPFMFSLHLNEARDYEVSDSAPHLEGLAEFQENVRKTNNFSAFLANVRKAFTATVYN
chain 2: METLSFPRYNVAEIVIHIRNKILTGADGKNLTDNDLYPNPDPEVLHMIYMRALQIVYGIRLEHFYMMPVNSEVMYPHLMEGFLPFSNLVTHLDSFLPICRVNDFETADILCPKADRTSRFLSGIINFIHFREACRETYMEFLWQYKSSADKMQQLNAAHQEALMKLERLEKEVDEDTTVTIPSAVYVAQLYHQVSKIEWDYECEPGMVKGIHHGPSVAQPIHLDSTQLSRKFISDYLWSLVDTEW
Take B1: the response was found to be 160 a.u.

B2: Human Ndc80c Bonsai Ndc80-GFP (WT) Hec1:K166D (protein)
chain 1: MKRSSVSSGGAGRLSMQELRSQDVNKQGLYTPQTKEKPTFGKLSINKPTSERKVSLFGKRTSGHGSRNSQLGIFSSSEKIKDPRPLNDKAFIQQCIRQLCEFLTENGYAHNVSMKSLQAPSVKDFLKIFTFLYGFLCPSYELPDTKFEEEVPRIFKDLGYPFALSDSSMYTVGAPHTWPHIVAALVWLIDCIKIHTAMKESSPLFDDGQPWGEETEDGIMHNKLFLDYTIKCYESFMSGADSFDEMNAELQSKLKDLFNVDAFKLESLEAKNRALNEQIARLEQERSTANKANAERLKRLQKSADLYKDRLGLEIRKIYGEKLQFIFTNIDPKNPESPFMFSLHLNEARDYEVSDSAPHLEGLAEFQENVRKTNNFSAFLANVRKAFTATVYN
chain 2: METLSFPRYNVAEIVIHIRNKILTGADGKNLTKNDLYPNPKPEVLHMIYMRALQIVYGIRLEHFYMMPVNSEVMYPHLMEGFLPFSNLVTHLDSFLPICRVNDFETADILCPKAKRTSRFLSGIINFIHFREACRETYMEFLWQYKSSADKMQQLNAAHQEALMKLERLEKEVDEDTTVTIPSAVYVAQLYHQVSKIEWDYECEPGMVKGIHHGPSVAQPIHLDSTQLSRKFISDYLWSLVDTEW
Turning to B2, the response was found to be 400 a.u.
